B1: OR4K15 (parent)
chain: GUUAACGGUCAUAGGCCAUGGAAACUAGGAGCACCAUUUCGCUGCCAGUGAAGAAAUGAACAAAGAAAAUCUGGGCCAGGCAGGCAUCAAAAGAAAUAGUCUUGCGCUCAACCAGAAAGUCUGUAAUCAUUUUAAGGGUA

Variants of: B1
Assay: self-cleavage, relative activity (ratio to wild type); higher = more cleavage; in vitro, sequencing; the parent is a self-cleaving ribozyme

Variant	self-cleavage
GUUAACGGUCAUAGGCCAUGGAAACUAGGAGCACCAUUUCGCUGCCAGUGAAGAAAUGAUCAAAGAAAAUCUGGGCCAGGCAGGCAUCAAAAGAAAUAGUCUUGCGCCCAACCAGAAAGUCUGUAAUCAUUUUAAGGGUA	0.01
GUUAACGGUCAUAGGCCAUGGAAACUAGGAGCACCAUUUCGCUGCCAGUGAAGAAAUGAAUAAGGAAAAUCUGGGCCAGGCAGGCAUCAAAAGAAAUAGUCUUGCGCUCAACCAGAAAGUCUGUAAUCAUUUUAAGGGUA	1.63
GUUAACGGUCAUAGGCCAUGGAAACUAGGAGCACCAUUUCGCUGCCAGUGAAGAAAUGAAGAAAGAAAAUCUGGGCCAGGCAGGCAUCAAAAGAAAUAGUCUUGCGCUCGACCAGAAAGUCUGUAAUCAUUUUAAGGGUA	0.41
GUUAACGGUCAUAGGCCAUGGAAACUAGGAGCACCAUUUCGCUGCCAGUGAAGAAAUGAUCAAAGAAAAUCUGGGCCAGGCAGGCAUCAAAAGAAAUAGUCUUGCGCUCAACCAGAAAGUCUGUAAUCACUUUAAGGGUA	1.22
GUUAACGGUCAUAGGCCAUGGAAACUAGGAGCACCAUUUCGCUGCCAGUGAAGAAAUGAUCAAAGAAAAUCUGGGCCAGGCAGGCAUCAAAAGAAAUAGUCUUGCGCUCAACCAGAAAGUCUGUAAUCAUUUUAAAGGUA	1.51
GUUAACGGUCAUAGGCCAUGGAAACUAGGAGCACCAUUUCGCUGCCAGUGAAGAAAUGAAUAAAGAAAAUCUGGGCCAGGCAGGCAUCAAAAGGAAUAGUCUUGCGCUCAACCAGAAAGUCUGUAAUCAUUUUAAGGGUA	1.63
GUUAACGGUCAUAGGCCAUGGAAACUAGGAGCACCAUUUCGCUGCCAGUGAAGAAAUGAAUAAAGAAAAUCUGGGCCAGGCGGGCAUCAAAAGAAAUAGUCUUGCGCUCAACCAGAAAGUCUGUAAUCAUUUUAAGGGUA	0.28
GUUAACGGUCAUAGGCCAUGGAAACUAGGAGCACCAUUUCGCUGCCAGUGAAGAAAUGAAUAAAGAAAAUCUGGGCCAGGCAGGCAUCAAAAGAAAUGGUCUUGCGCUCAACCAGAAAGUCUGUAAUCAUUUUAAGGGUA	0.45
GUUAACGGUCAUAGGCCAUGGAAACUAGGAGCACCAUUUCGCUGCCAGUGAAGAAAUGAAUAAAGAAAAUCUGGGCCUGGCAGGCAUCAAAAGAAAUAGUCUUGCGCUCAACCAGAAAGUCUGUAAUCAUUUUAAGGGUA	0.43
GUUAACGGUCAUAGGCCAUGGAAACUAGGAGCACCAUUUCGCUGCCAGUGAAGAAAUGAUCAAAGAAAAUCUGGGCCAGGCAAGCAUCAAAAGAAAUAGUCUUGCGCUCAACCAGAAAGUCUGUAAUCAUUUUAAGGGUA	1.65
GUUAACGGUCAUAGGCCAUGGAAACUAGGAGCACCAUUUCGCUGCCAGUGAAGAAAUGAUCAAAGAAAAUCUGGGCCAGGCAGGCAUCAAAAGAAAUAGUCUUACGCUCAACCAGAAAGUCUGUAAUCAUUUUAAGGGUA	0.03
GUUAACGGUCAUAGGCCAUGGAAACUAGGAGCACCAUUUCGCUGCCAGUGAAGAAAUGAUCAAAGAAAAUCUGGGCCAUGCAGGCAUCAAAAGAAAUAGUCUUGCGCUCAACCAGAAAGUCUGUAAUCAUUUUAAGGGUA	0.08
GUUAACGGUCAUAGGCCAUGGAAACUAGGAGCACCAUUUCGCUGCCAGUGAAGAAAUGAUCAAAGAAAACCUGGGCCAGGCAGGCAUCAAAAGAAAUAGUCUUGCGCUCAACCAGAAAGUCUGUAAUCAUUUUAAGGGUA	1.72
GUUAACGGUCAUAGGCCAUGGAAACUAGGAGCACCAUUUCGCUGCCAGUGAAGAAAUGAUCAAAGAAAAUCUGGGCCAGGCAGGCAUCAAAAGAAAUAGUCUUGCGCUCAACCAGAAAGUCUGUAAUCAUUUUGAGGGUA	1.84
GUUAACGGUCAUAGGCCAUGGAAACUAGGAGCACCAUUUCGCUGCCAGUGAAGAAAUGAAGUAAGAAAAUCUGGGCCAGGCAGGCAUCAAAAGAAAUAGUCUUGCGCUCAACCAGAAAGUCUGUAAUCAUUUUAAGGGUA	1.87
GUUAACGGUCAUAGGCCAUGGAAACUAGGAGCACCAUUUCGCUGCCAGUGAAGAAAUGAUCAAAGAAAAUCUGGGCCAGGCAGGCAUCAAAAGAAAUAGUCUCGCGCUCAACCAGAAAGUCUGUAAUCAUUUUAAGGGUA	0.16
GUUAACGGUCAUAGGCCAUGGAAACUAGGAGCACCAUUUCGCUGCCAGUGAAGAAAUGAAUAAAGAAAAUCUGGGCCAGGCAGGCAUCAAAAGAAAUAGUCUUGCGCUCAACCAGGAAGUCUGUAAUCAUUUUAAGGGUA	0.39
GUUAACGGUCAUAGGCCAUGGAAACUAGGAGCACCAUUUCGCUGCCAGUGAAGAAAUGAAUAGAGAAAAUCUGGGCCAGGCAGGCAUCAAAAGAAAUAGUCUUGCGCUCAACCAGAAAGUCUGUAAUCAUUUUAAGGGUA	2.17
GUUAACGGUCAUAGGCCAUGGAAACUAGGAGCACCAUUUCGCUGCCAGUGAAGAAAUGAUCAAAGAAAAUCUGGGCCAGGCAGGCAACAAAAGAAAUAGUCUUGCGCUCAACCAGAAAGUCUGUAAUCAUUUUAAGGGUA	1.61
GUUAACGGUCAUAGGCCAUGGAAACUAGGAGCACCAUUUCGCUGCCAGUGAAGAAAUGAUCAAAGAAAAUCUGGGCCAGGCAGGCACCAAAAGAAAUAGUCUUGCGCUCAACCAGAAAGUCUGUAAUCAUUUUAAGGGUA	1.43
GUUAACGGUCAUAGGCCAUGGAAACUAGGAGCACCAUUUCGCUGCCAGUGAAGAAAUGAUCAAAGAAAAUCUGGGCCAGGCAGGCAUCAAAAGAAAUAGUCCUGCGCUCAACCAGAAAGUCUGUAAUCAUUUUAAGGGUA	2.8

Source: the RNAGym collection of RNA variant scans (doi:10.7554/elife.90254)
